Results taken from US20260207767A1 (ANAVEON, published 2026).
Where two headings read alike, the source gives them in different places.

Legend:
[1] = target: T1, hPD-1 Avi-Tag Biotin (AcroBiosystems PD1-H82E4) (human, UniProt Q15116 25-167, biotin on Avi-Tag); assay: SPR, Ab captured, PD-1 analyte
T1 construct: bought; also called human PD-1
Method: (§1) Anti-human Fc IgG (Jackson) was immobilized on amine reactive CM5 chips (GE Healthcare) using 1×HBS-EP+ running buffer (GE Healthcare). The test antibodies were captured at flow rate 10 μl/min with 30 s contact time. […] Regeneration was carried out with 10 mM Glycine-HCl, pH 1.5 at flow rate 10 μL/min. This protocol is to be used, unless stated otherwise, in determination of Kd wherever used to define the KD of antibodies specified herein, with adaptions where necessary with regard to the nature of the interaction partners.

[2] = target: T2, cynoPD-1 His (AcroBiosystems PD1-C5223) (cynomolgus monkey, UniProt B0LAJ3 25-170); assay: SPR, Ab captured, PD-1 analyte
T2 construct: also called cPD-1; cynomolgus PD-1 His-tagged
T2 sequence (B0LAJ3 entry or part of it limits assumed): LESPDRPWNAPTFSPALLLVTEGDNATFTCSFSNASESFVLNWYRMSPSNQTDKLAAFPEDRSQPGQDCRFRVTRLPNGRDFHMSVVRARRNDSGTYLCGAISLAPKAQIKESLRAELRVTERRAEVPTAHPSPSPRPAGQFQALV
Method: as §1

[3] = target: T3, human PD-1 expressed on cells (human, UniProt Q15116 25-288); assay: flow cytometry, CHO-S hPD-1
T3 construct: whole, on cells; cell line named under assay; also called CHO-S hPD-1; Raji PD-1
T3 sequence (Q15116 25-288): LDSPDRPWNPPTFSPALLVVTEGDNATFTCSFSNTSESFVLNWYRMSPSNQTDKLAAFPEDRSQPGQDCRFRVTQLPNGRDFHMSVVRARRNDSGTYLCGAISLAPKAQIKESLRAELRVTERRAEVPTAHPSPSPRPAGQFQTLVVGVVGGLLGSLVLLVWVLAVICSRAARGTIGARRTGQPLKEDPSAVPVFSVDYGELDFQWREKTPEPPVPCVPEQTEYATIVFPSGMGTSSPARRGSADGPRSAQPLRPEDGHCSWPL
Method: CHO-S hPD-1 cells were incubated with a 5-fold serial dilution of the indicated humanized antibodies. Antibody binding was detected with goat anti-human IgG-PE. MFI were plotted over the antibody concentration to obtain EC50 values.

[4] = target: T4, recombinant cynoPD-1 (construct not stated) (cynomolgus monkey, UniProt B0LAJ3 25-170); assay: ELISA
T4 construct: not shown: probably His as elsewhere

[5] = target: T5, recombinant hPD-1 (construct not stated) (human, UniProt Q15116 25-167, limits assumed); assay: ELISA
T5 construct: also called huPD-1; Human PD1
T5 sequence (Q15116 25-167 limits assumed): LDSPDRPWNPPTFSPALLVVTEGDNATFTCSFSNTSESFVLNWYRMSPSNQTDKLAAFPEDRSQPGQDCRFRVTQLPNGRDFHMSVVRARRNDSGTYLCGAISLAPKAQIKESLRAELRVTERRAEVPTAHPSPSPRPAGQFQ

[6] = target: T2, cynoPD-1 His (AcroBiosystems PD1-C5223); assay: SPR; second ka column, taken as cynoPD-1
Method: as §1
Every position in the antibody VH and VL-CDRs was mutated by PCR using a mutagenic primer containing a degenerate codon NNS at a specific CDR position, introducing a combination of all 20 amino acids. The library of single mutants was screened by scFv capture ELISA using a redundancy factor of 4 (on 96-well plate er position). Clones displaying ≥2× ELISA signal compared to the wild-type scFv were sequenced, and clones with unique sequences were re-grown, re-screened by capture ELISA and ranked by dose-dependent ELISA on human and cyno antigens, and by FACS using human antigen expressing cells. Affinity improving mutations were used to design a combinatorial library using the Kunkel method. The library was screened by scFv capture ELISA using the redundancy factor of 4 (4× number of combinations). Clones displaying ≥2× ELISA signal compared to the wild-type scFv were sequenced, and clones with unique sequences were re-grown, re-screened by capture ELISA and ranked by dose-dependent ELISA on human and cyno antigens, and by FACS using human antigen expressing cells.

[7] = target: T1, hPD-1 Avi-Tag Biotin (AcroBiosystems …); assay: SPR, Ab captured, PD-1 analyte; remark: listed apart in the source
Method: as §1, with “partners. […]” for “partners.”

[8] = target: T6, cynomolgus PD-1 expressed on cells (cynomolgus monkey, UniProt B0LAJ3 25-288); assay: flow cytometry, CHO-S Cyno-PD-1
T6 construct: also called CHO-S Cyno-PD-1; 293:cyPD1
T6 sequence (B0LAJ3 entry or part of it limits assumed): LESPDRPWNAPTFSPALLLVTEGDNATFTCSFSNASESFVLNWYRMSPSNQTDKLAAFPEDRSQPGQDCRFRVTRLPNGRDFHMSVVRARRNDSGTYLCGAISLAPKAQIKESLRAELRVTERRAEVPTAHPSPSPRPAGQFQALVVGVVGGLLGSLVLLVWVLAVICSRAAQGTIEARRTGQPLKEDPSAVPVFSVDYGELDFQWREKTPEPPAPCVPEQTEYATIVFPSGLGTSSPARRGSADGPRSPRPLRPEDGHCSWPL

[9] = target: T3, human PD-1 expressed on cells; assay: flow cytometry, CHO-S hPD-1; remark: listed apart in the source
hPD-1 His-tagged = target: T7, hPD-1 His-tagged (human, UniProt Q15116 25-167); assay: BLI (legend: SPR), Ab on sensor
T7 construct: also called recombinant hPD-1 (AcroBio)
T7 sequence (Q15116 25-167 limits assumed): as the sequence (Q15116 25-167 limits assumed) above

[10] = target: T2, cynoPD-1 His (AcroBiosystems PD1-C5223); assay: BLI (legend: SPR), Ab on sensor
[11] = target: T6, cynomolgus PD-1 expressed on cells; assay: flow cytometry, HEK293 cyPD1
[12] = target: T3, human PD-1 expressed on cells; assay: flow cytometry, HEK293 huPD1

T1 sequence (Q15116 25-167 limits assumed): as above

Binder | Kd (hPD-1 His-tagged) | koff (hPD-1 His-tagged) | kon (hPD-1 His-tagged) | Kd [10] | koff [10] | kon [10] | EC50 [11] | EC50 [12] | further results
z2-XVT458 (antibody, IgG1, V domains shown, full hIgG1; also called XVT458-z2; GH + T071V) VH: QVQLVQSGAEVKKPGASVKVSCKASGYTFTNFYIHWVRQAPGQGLEWMGSIYPNYGDTAYNQKFKDRVTMTVDTSTSTAYMELRSLRSDDTAVYYCARGYSYAMDYWGQGTTVTVSS VL: DIQMTQSPSSVSASVGDRVTITCSASQGISGDLNWYQQKPGKAPKLLIYHTSSLHSGVPSRFSGSGSGTDFTLTISSLQPEDFATYYCQYYSKDLLTFGGGTKLEIK |  |  |  |  |  |  |  |  | Kd [1]: 14 nM; koff [1]: 0.00127 s⁻¹; kon [1]: 90700 M⁻¹ s⁻¹; Kd [2]: 54.2 nM; koff [2]: 0.0031 s⁻¹; kon [2]: 57200 M⁻¹ s⁻¹; EC50 [3]: 4.15 nM; Top MFI [3]: 45500 MFI; EC50 [4]: 0.4 nM; Max OD [4]: 3.32 OD; EC50 [5]: 0.71 nM; Max OD [5]: 2.91 OD; kon [6]: 73000 M⁻¹ s⁻¹; Kd [7]: 12.5 nM; koff [7]: 0.00124 s⁻¹; kon [7]: 99200 M⁻¹ s⁻¹; Max MFI [8]: 109 MFI; EC50 [9]: 5.86 nM; Max MFI [9]: 40700 MFI
22F13 (antibody, V domains shown, used with CH1,2,3 and corresponding CL) VH: EVQLLESGGGLVQPGGSLRLSCAASGFTFSISAMTWVRQAPGKGLEWVSTISGSGGSTYYSDSVKGRFTISRDNSKNTLYLQINSLRADDTAVYYCAKEVYGDYWGQGTLVTVSS VL: not shown | 1.41 nM | 0.000132 s⁻¹ | 94000 M⁻¹ s⁻¹ | 8.45 nM | 0.000838 s⁻¹ | 99200 M⁻¹ s⁻¹ | 0.107 nM | 0.2 nM | 
25I20 (antibody, V domains shown, used with CH1,2,3 and corresponding CL; also called 25120) VH: EVQLLESGGNLVQPGGSLRLSCAASGFTFSTYAMSWVRQAPGKGLEWVSTISGTGYSTYFADSVKGRFTISRDNSKNTLFLQMNSLRAEDTAVYYCAKEVYGDYWGQGTLVTVSS VL: not shown | 1.15 nM | 0.000101 s⁻¹ | 87500 M⁻¹ s⁻¹ | 8.38 nM | 0.000783 s⁻¹ | 93400 M⁻¹ s⁻¹ | 0.31 nM | 0.179 nM | 
20H02 (antibody, V domains shown, used with CH1,2,3 and corresponding CL) VH: EVLLVESGGGLVQPGGSLRLSCAASGFTFSSYSMNWVRQAPGKGLEWVSFISSSSPTLYYADSVKGRFTISRDNAKNSLYLQMNSLRDEDTAVYYCARQGLTPFDYWGQGTLVTVSS VL: EIVMTQSPATLSVFPGERATLSCRASQSVSSYLAWYQQKPGQAPRLLIYGASTRATGIPARVSGSGSGTEFILTISSLQSEDFAVYYCQQYNNWPYTFGQGTKLEIK | 2.43 nM | 0.000221 s⁻¹ | 90900 M⁻¹ s⁻¹ | 6.39 nM | 0.000463 s⁻¹ | 72500 M⁻¹ s⁻¹ | 0.231 nM | 0.503 nM | 
39F23 (antibody, V domains shown, used with CH1,2,3 and corresponding CL) VH: QVQLVESGGGVGQPGRSLRLSCAASGFTFSNYGMHWVRQAPGKGLEWVAVIWYDGSKKYYADSVKGRFTISRDNSKNTLYLQMNSLRVEDTAVYYCVGNSGHWGQGTLVTVSS VL: DIVMTQTPLSLPVTPGEPASISCRSSQSLLDSDDGNTYLDWYLQKPGQSPQLLIYTLSYRASGVPDRFSGSGSGTDFTLKISRVEAEDVGVYYCMQCIEFPHTFGGGTKVEIK | 1.03 nM | 0.000253 s⁻¹ | 244000 M⁻¹ s⁻¹ | 1.3 nM | 0.000294 s⁻¹ | 227000 M⁻¹ s⁻¹ | 0.0289 nM | 0.0189 nM | 
40B20 (antibody, V domains shown, used with CH1,2,3 and corresponding CL) VH: EVQLVESGGGLVQPGGSLRLSCAASGFTFSSYSMNWVRQAPGKGLQWVSYITSSSNTMYYADSVKGRFTISRDNAKNSLYLQMNSLRDEDTAVYYCASIVGAPFDYWGQGTLVTVSS VL: EIVMTQSPATLSVSPGERATLSCRASQSVSSSLAWYQQKPGQAPRLLIYGASTRATGIPARFSGSGSGTEFTLTISSLQSEDFAAYYCQQYNNWPFTFGPGTKVDIK | 9.61 nM | 0.000773 s⁻¹ | 80500 M⁻¹ s⁻¹ | 7.51 nM | 0.000505 s⁻¹ | 67300 M⁻¹ s⁻¹ | 0.0958 nM | 0.162 nM | 
